According to patent US20240010684A1 (Bayer, published 2024):
Bridges are numbered along the chain shown (N, C = ends). Where no end group is shown, it is not given here. [ ]: non-standard residue; d: D form. Oic = O=C(O)[C@@H]1C[C@@H]2CCCC[C@@H]2N1; tBuAla = CC(C)(C)C[C@H](N)C(=O)O; Pen = CC(C)(S)[C@H](N)C(=O)O; NMeC = CN[C@@H](CS)C(=O)O; Orn = NCCC[C@H](N)C(=O)O; Abu = CC[C@H](N)C(=O)O; PEG2 = NCCOCCOCCC(=O)O; Ahx = NCCCCCC(=O)O

Legend:
[1] = target: recombinant human MASP2 (amino acids 297-686, C-terminal His Tag) (human, UniProt O00187 297-686); experiment: cell-based or functional assay
[2] = target: T1, recombinant human MASP1 (amino acids 297-699, C-terminal His Tag) (human, UniProt P48740 297-699); experiment: cell-based or functional assay
T1 sequence: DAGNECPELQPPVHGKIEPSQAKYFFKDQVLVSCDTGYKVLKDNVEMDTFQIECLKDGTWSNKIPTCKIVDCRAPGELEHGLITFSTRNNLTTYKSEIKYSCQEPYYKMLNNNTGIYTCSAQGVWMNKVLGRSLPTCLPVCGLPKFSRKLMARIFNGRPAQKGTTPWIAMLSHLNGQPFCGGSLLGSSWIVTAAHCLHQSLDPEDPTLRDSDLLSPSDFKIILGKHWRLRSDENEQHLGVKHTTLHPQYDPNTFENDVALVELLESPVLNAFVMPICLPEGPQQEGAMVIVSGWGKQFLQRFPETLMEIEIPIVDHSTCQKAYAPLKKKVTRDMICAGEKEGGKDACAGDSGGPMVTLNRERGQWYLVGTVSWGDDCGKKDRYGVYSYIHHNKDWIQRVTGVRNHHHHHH

recombinant human MASP2 (amino acids 297-686, C-terminal His Tag), sequence (O00187 other isoform, or with tags, fused parts or gaps limits assumed): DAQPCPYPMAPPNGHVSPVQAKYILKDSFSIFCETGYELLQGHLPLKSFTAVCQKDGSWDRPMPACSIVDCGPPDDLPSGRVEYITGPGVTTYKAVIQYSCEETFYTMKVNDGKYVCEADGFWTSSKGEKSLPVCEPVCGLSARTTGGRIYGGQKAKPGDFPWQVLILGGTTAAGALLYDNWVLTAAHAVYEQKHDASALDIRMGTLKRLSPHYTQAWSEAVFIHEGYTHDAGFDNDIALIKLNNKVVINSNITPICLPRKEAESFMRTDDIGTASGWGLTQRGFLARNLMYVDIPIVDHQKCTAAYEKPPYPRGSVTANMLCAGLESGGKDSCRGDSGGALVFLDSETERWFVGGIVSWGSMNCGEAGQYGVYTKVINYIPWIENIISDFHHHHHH

Row | Binder | human MASP2 IC50 [1] [nM] | human MASP1 IC50 [2] [nM]
1 | cyclo(AGAICSRS[tBuAla]PPI[Pen]IPD) (disulfide 5-13; also: TFA salt) [Example 26: A**GAIC+SRS-((tBu)A)-PPI-(Pen)+-IPD**] | 170 | 12
2 | cyclo([PEG2]AICSRS[tBuAla]PPI[Pen]IPD) (disulfide 4-12; also: TFA salt) [Example 34: (PEG1(10 atoms))**-AIC+SRS-((tBu)A)-PPI-(Pen)+-IPD**] | 98 | 11
3 | [Ahx]AICSRSLP[Oic]I[Pen]IPD-NH2 (disulfide 4-12; lactam N-15; also: TFA salt) [Example 43: (Ahx)**AIC+SRSLP-(Oic)-I-(Pen)+-IPD++-NH2] | 120 | 6.7
4 | cyclo([Ahx]AICSRS[tBuAla]PPICIPD) (disulfide 4-12; also: TFA salt) [Example 46: (Ahx)**-AIC+SRS-((tBu)A)-PPIC+IPD**] | 89 | 56
5 | cyclo(AGGICSRS[tBuAla]PPI[Pen]IPD) (disulfide 5-13; also: TFA salt) [Example 29: A**GGIC+SRS-((tBu)A)-PPI-(Pen)+-IPD**] | 68 | 8.6
6 | GAICSRSLPPICIPD-NH2 (disulfide 4-12; lactam N-15; also: TFA salt) [Example 37: G**AIC+SRSLPPIC+IPD++-NH2] | 140 | 16
7 | cyclo([Ahx]AICSRS[tBuAla]PPI[NMeC]IPD) (disulfide 4-12; also: TFA salt) [Example 32: (Ahx)**-AIC+SRS-((tBu)A)-PPI-((N-Me)C)+-IPD**] | 63.5 | 22
8 | AGAICSRSLP[Oic]I[Pen]IPD-NH2 (disulfide 5-13; lactam N-16; also: TFA salt) [Example 41: A**GAIC+SRSLP-(Oic)-I-(Pen)+-IPD++-NH2] | 190 | 5.9
9 | [Orn]AICSRS[tBuAla]PPI[NMeC]IPD-NH2 (lactam 1-15; disulfide 4-12; also: TFA salt) [Example 44: (Orn)++-AIC+SRS-((tBu)A)-PPI-((N-Me)C)+-IPD++-NH2] | 230 | 4.7
10 | cyclo([Ahx]AICSRS[tBuAla]PPI[Pen]IPD) (disulfide 4-12; also: TFA salt) [Example 27: (Ahx)**-AIC+SRS-((tBu)A)-PPI-(Pen)+-IPD**] | 37.5 | 9.1
11 | [Ahx]GICSRS[tBuAla]PPI[Pen]IPD-NH2 (disulfide 4-12; lactam N-15; also: TFA salt) [Example 48: (Ahx)**-GIC+SRS-((tBu)A)-PPI-(Pen)+-IPD++-NH2] | 70 | 10
12 | cyclo([Ahx]AICSRSLP[Oic]ICIP) (disulfide 4-12; also: TFA salt) [Example 25: (Ahx)**-AIC+SRSLP-(Oic)-IC+IP**] | 610 | 60
13 | cyclo([PEG2]GICSRSLPPICIPD) (disulfide 4-12; also: TFA salt) [Example 24: (PEG1(10 atoms))**-GIC+SRSLPPIC+IPD**] | 210 | 110
14 | AGGICSRSLP[Oic]I[Pen]IPD-NH2 (disulfide 5-13; lactam N-16; also: TFA salt) [Example 42: A**GGIC+SRSLP-(Oic)-I-(Pen)+-IPD++-NH2] | 200 | 13
15 | cyclo([Ahx]AICSRSLPPICIPD) (disulfide 4-12; also: TFA salt) [Example 45: (Ahx)**-AIC+SRSLPPIC+IPD**] | 74 | 92
16 | cyclo([Ahx][Abu]ICSRS[tBuAla]PPI[Pen]IPD) (disulfide 4-12; also: TFA salt) [Example 38: (Ahx)**-(Abu)-IC+SRS-((tBu)A)-PPI-(Pen)+-IPD**] | 44 | 20
